Measurements published in patent US20030166027A1, “Compositions, test kits and methods for detecting helicobacter pylori” (priority 2002, published 2003).

B1: Omp18-peptido-glycan associated lipoprotein precursor (protein)
chain: MKRSSVFSFLVAFLLVAGCSHKMDNKTVAGDVSAKTVQTAPVTTEPAPEKEEPKQEPAPVVEEKPAVESGTIIASIYFDFDKYEIKESDQETLDEIVQKAKENHMQVLLEGNTDEFGSSEYNQALGVKRTLSVKNALVIKGVEKDMIKTISFGETKPKCAQKTRECYKENRRVDVKLMK
notes: 30 kd H. pylori antigen band in whole cell lysate, identified as Omp18
B2: HpaA-neuraminyl-lactose-hemagglutinin precursor (protein)
chain: MKKGSLAIVLGSLLASGAFYTALADGMPAKQQHNNTGESVELHFHYPIKGKQEPKNSHLVVLIEPKIEINKVIPESYQKEFEKSLFLQLSSFLERKGYSVSQFKDASEIPQDIKEKALLVLRMDGNVAILEDIVEESDALSEEKVIDMSSGYLNLNFVEPKSEDIIHSFGIDVSKIKAVIERVELRRTNSGGFVPKTFVHRIKETDHDQAIRKIMNQAYHKVMVHITKELSKKHMEHYEKVSSEMKKRK
notes: 32 kd H. pylori antigen band in whole cell lysate, identified as HpaA
B3: RPL7/L12 50S ribosomal protein L7/L12 (protein)
chain: MNISVNPYLMAVVFVVFVLLLWAMNVWVYRPLLAFMDNRQAEIKDSLAKIKTDNAQSVEIGHQIEALLKEAAEKRREIIAEAIQKATESYDAVIKQKENELNQEFEAFAKQLQNEKQALKEQLQAQMPVFEDELNKRVAMGLGS
notes: 15 kd H. pylori antigen band in whole cell lysate, identified as RPL7/L12
B4: HP0596 a hypothetical protein (protein)
chain: MLEKSFLKSKQLFLCGLGVLMLQACTCPNTSQRNSFLQDVPYWMLQNRSEYITQGVDSSHIVDGKKTEEIEKIATKRATIRVAQNIVHKLKEAYLSKTNRIKQKITNEMFIQMTQPIYDSLMNVDRLGIYINPNNEEVFALVRARGFDKDALSEGLHKMSLDNQAVSILVAKVEEIFKDSVNYGDVKVPIAM
notes: 23 kd H. pylori antigen band in whole cell lysate, identified as HP0596

These molecules were tested on specific serum IgG antibodies in sera from patients diagnosed with a H. pylori infection (assay: Quantitative Western-blot analysis (integrated optical density) of patient sera on H. pylori whole cell lysate antigens). Conditions: antigens from Hp02 (FIG. 3); sera 3 months post therapy.
Assay type: binding, human

Molecule	% IOD
B1	50.71 +/− 11.48%
B2	32.30 +/− 13.97%
B3	36.29 +/− 14.99%
B4	35.86 +/− 11.88%

Same assay, conditions: antigens from Hp02 (FIG. 3); sera 5 months post therapy

Molecule	% IOD
B1	21.56 +/− 6.44%
B2	8.70 +/− 3.2%
B3	11.39 +/− 4.27%
B4	13.51 +/− 5.02%

Same assay, conditions: antigens from Hp02 (FIG. 3); sera before therapy, set as 100%

Molecule	% IOD [%]
B1	100
B2	100
B3	100
B4	100

Same assay, conditions: antigens from Hp08 (FIG. 2); sera 3 months post therapy

Molecule	% IOD
B1	62.53 +/− 10.32%
B2	48.11 +/− 8.15%
B3	28.60 +/− 13.85%
B4	23.05 +/− 7.53%

Same assay, conditions: antigens from Hp08 (FIG. 2); sera 5 months post therapy

Molecule	% IOD
B1	40.77 +/− 4.45%
B2	21.06 +/− 8.01%
B3	9.96 +/− 4.99%
B4	11.36 +/− 4.45%

Same assay, conditions: antigens from Hp08 (FIG. 2); sera before therapy, set as 100%

Molecule	% IOD [%]
B1	100
B2	100
B3	100
B4	100

Same assay, conditions: antigens from Hp504, first experiment (FIG. 1A); sera 3 months post therapy

Molecule	% IOD
B1	32.08 +/− 6.48%
B2	41.61 +/− 9.25%
B3	37.86 +/− 8.98%
B4	33.88 +/− 10.59%

Same assay, conditions: antigens from Hp504, first experiment (FIG. 1A); sera 5 months post therapy

Molecule	% IOD
B1	20.71 +/− 12.72%
B2	15.15 +/− 4.20%
B3	15.37 +/− 6.68%
B4	23.81 +/− 7.83%

Same assay, conditions: antigens from Hp504, first experiment (FIG. 1A); sera of 9 patients before therapy, set as 100%

Molecule	% IOD [%]
B1	100
B2	100
B3	100
B4	100

Same assay, conditions: antigens from Hp504, second experiment (FIG. 1B); sera 3 months post therapy

Molecule	% IOD
B1	53.58%
B2	32.15%
B3	46.17 +/− 16.87%
B4	52.37 +/− 12.72%

Same assay, conditions: antigens from Hp504, second experiment (FIG. 1B); sera 5 months post therapy

Molecule	% IOD
B1	41.28%
B2	27.2%
B3	19.77 +/− 11.11%
B4	34.77 +/− 9.61%

Same assay, conditions: antigens from Hp504, second experiment (FIG. 1B); sera before therapy, set as 100%

Molecule	% IOD [%]
B1	100
B2	100
B3	100
B4	100

Same assay, conditions: average of all strains (FIG. 4); 3 months after eradication treatment

Molecule	average titer of specific antibodies [%]	reduction of average titer [%]
B1	49.73	50.27
B2	38.5	61.5
B3	31.61	68.39
B4	36.29	63.71

Same assay, conditions: average of all strains (FIG. 4); 5 months after end of treatment

Molecule	average titer of specific antibodies [%]	reduction of average titer [%]
B1	31.08	68.92
B2	18.03	81.97
B3	14.12	85.88
B4	28.87	79.13

The molecules below were run on sera from H. pylori infected patients (assay: Immunoblot analysis of whole cell lysates with sera from H. pylori infected patients). Conditions: one serum of an infected patient (HS#0 12, table 1).
Assay type: binding, human
Protocol: The protein content of the bacterial lysates was determined by the method according to Lowry (Lowry et al., 1951) with bovine serum albumin as a standard. The lysates were dried in a speedVac concentrator. Afterwards the pellets were suspended in gel sample buffer (4% SDS, 12% glycerin, 4% β-mercaptoethanol, 0.01% Serva Blue G250 in 50 mM Tris/HCl pH 6.8) and boiled for 10 min. H. pylori and C. jejuni lysates were separated on 1.0 or 1.5 mm 7.5-16.5% SDS-tricine gradient gels (Schaegger and v. Jagow, 1987). Therefore a 7.5% and a 16.5% acrylamide solution for the separating gel and a 4% acrylamide solution for the stacking gel were prepared according to the scheme presented in table 3. Using a gradient-mixer the gel was poured slowly, but with continuous flow between the glass plates of the gel-sandwich. The separating gel was overlaid with deonized H2O and allowed to polymerize for 1 hr. Afterwards the water was removed, APS and TEMED was added to the stacking gel solution that was poured on top of the separating gel. A comb with the appropriate number of sample pockets was inserted and removed after polymerisation for 1 hr. The gel-sandwich was placed in an electrophoresis chamber half filled with bottom running buffer (0.2 M Tris-HCI, pH 8.9). […] The protein pattern after electrophoresis was determined by Silver staining (Heukeshoven, 1985) or Coomassie blue staining. […]

Molecule	reaction with serum HS#0 12
B3	did not react
